This is an account of results in publication PMC2428073, “Architecture of a Serine Recombinase-DNA Regulatory Complex” (Molecular Cell, 2008).

Data set [1] deals with the molecule itself. The data set can be described thus: crystal structure; WT Sin cocrystallized with a 29 bp site II DNA duplex (2:1.25 molar ratio), hanging drop, 25 mM TRIS pH 7.5, (NH4)2SO4; two DNA-bound Sin dimers per asymmetric unit; 3.21 Å.
For data set [2], the target named is T1, Sin recombinase (pI9789 Sin) (Staphylococcus aureus (multiresistance …, UniProt P20384 1-202)).
T1 sequence: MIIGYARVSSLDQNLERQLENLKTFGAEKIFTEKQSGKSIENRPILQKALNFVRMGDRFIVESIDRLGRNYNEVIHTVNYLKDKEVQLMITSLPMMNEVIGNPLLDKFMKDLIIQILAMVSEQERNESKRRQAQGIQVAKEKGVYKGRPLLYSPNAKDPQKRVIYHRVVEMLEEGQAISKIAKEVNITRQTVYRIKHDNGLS
The data set can be described thus: X-ray crystallography (MAD/SIRAS, 3.21 A); Crystal structure; protein stored in 25 mM Tris pH 7.5, 0.5 mM EDTA, 400 mM (NH4)2SO4, 20% glycerol; DNA annealed in 100 mM NaCl; crystallization conditions not in the material. The note with it: protein: recombinant; tags: His6 (C-terminal); chain copies: 2; overhanging AT dinucleotides pairing with adjacent duplexes.

Several values for one entry are separate records, joined by “and”; a condition that tells them apart may be missing. Identical values can stand only once.

B1: Wild-type His6-tagged pI9789 Sin (enzyme, S. aureus, UniProt P20384 1-202, looked up)
chain: MIIGYARVSSLDQNLERQLENLKTFGAEKIFTEKQSGKSIENRPILQKALNFVRMGDRFIVESIDRLGRNYNEVIHTVNYLKDKEVQLMITSLPMMNEVIGNPLLDKFMKDLIIQILAMVSEQERNESKRRQAQGIQVAKEKGVYKGRPLLYSPNAKDPQKRVIYHRVVEMLEEGQAISKIAKEVNITRQTVYRIKHDNGLS
notes: Sin resolvase (serine recombinase family) encoded by S. aureus plasmid pI9789; the crystal holds 836 Sin residues in four monomers (209 each, with the tag); The last nine residues, which contain the His6 tag, are not seen in the model; In the in vivo synapsis assay WT Sin was expressed from pSA9944 (also with a C-terminal His6 tag) in E. coli DS941; also called WT Sin; Sin resolvase; source: E. …
For B1, the “stoichiometry N” value in data set [1] was 2 and 4.

B2: Sin res site II 29 bp duplex (dsDNA)
DNA 1: AACGTATGATTAGGGTGTATATTAATTTATA
DNA 2: TAAATTAATATACACCCTAATCATACGTTTA
modifications: 5-Br-dU and iodine-labelled versions used for phasing
Consider B2, for which, in data set [2], the binding result is given as “binds”.
